How the values were obtained:
[1] = molecular target: T1, endogenous LGR5 of human cancer cell lines (human (endogenous in NALM6, REH, 697, LoVo)) (UniProt O75473)
T1 sequence: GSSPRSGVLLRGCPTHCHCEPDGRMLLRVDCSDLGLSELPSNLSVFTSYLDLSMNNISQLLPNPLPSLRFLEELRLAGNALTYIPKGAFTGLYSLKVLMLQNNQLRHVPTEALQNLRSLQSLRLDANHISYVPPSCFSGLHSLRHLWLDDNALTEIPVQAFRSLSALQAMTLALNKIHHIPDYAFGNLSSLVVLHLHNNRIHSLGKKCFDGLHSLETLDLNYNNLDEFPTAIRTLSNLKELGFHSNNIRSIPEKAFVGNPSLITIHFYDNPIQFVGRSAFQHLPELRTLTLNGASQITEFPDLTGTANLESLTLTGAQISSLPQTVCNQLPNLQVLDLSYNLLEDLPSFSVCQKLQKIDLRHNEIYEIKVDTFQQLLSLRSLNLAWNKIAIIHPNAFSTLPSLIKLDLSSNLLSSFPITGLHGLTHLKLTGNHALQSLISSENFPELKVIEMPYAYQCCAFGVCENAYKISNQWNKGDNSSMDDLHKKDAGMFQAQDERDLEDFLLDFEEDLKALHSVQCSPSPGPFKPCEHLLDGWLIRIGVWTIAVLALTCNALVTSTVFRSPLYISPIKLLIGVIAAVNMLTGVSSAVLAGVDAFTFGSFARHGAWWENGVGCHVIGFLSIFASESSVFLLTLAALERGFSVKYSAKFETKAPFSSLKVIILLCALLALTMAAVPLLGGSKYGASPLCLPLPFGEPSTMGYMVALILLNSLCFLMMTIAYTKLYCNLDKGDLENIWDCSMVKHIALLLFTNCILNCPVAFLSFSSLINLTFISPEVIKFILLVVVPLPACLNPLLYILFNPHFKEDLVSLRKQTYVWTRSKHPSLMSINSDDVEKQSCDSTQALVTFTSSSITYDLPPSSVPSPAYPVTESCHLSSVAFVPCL

[2] = molecular target: T1, endogenous LGR5 of human cancer cell lines (human (endogenous in NALM6, REH, 697, LoVo)); remark: listed apart in the source
[3] = molecular target: T2, RAD-displayed Fragment 1A of human LGR5 (Homo sapiens, UniProt O75473); experiment: BLI
T2 chain: GSSPRSGVLLRGCPT

[4] = molecular target: T2, RAD-displayed Fragment 1A of human LGR5; experiment: western blot
[5] = molecular target: T3, endogenous LGR5 of human cancer cell lines (Homo sapiens, UniProt O75473); experiment: western blot
[6] = molecular target: human LGR4 transgene with N-terminal HA tag, V2 receptor tail and eGFP (Homo sapiens, UniProt Q9BXB1); experiment: flow cytometry on cells
[7] = molecular target: murine LGR5 transgene with N-terminal HA tag, V2 receptor tail and eGFP (Mus musculus, UniProt Q9Z1P4); experiment: flow cytometry on cells
[8] = molecular target: T2, RAD-displayed Fragment 1A of human LGR5; experiment: immunostaining of cells or tissue
[9] = molecular target: T3, endogenous LGR5 of human cancer cell …; experiment: flow cytometry on cells

Chain of human LGR4 transgene with N-terminal HA tag, V2 receptor tail and eGFP (Q9BXB1 25-951): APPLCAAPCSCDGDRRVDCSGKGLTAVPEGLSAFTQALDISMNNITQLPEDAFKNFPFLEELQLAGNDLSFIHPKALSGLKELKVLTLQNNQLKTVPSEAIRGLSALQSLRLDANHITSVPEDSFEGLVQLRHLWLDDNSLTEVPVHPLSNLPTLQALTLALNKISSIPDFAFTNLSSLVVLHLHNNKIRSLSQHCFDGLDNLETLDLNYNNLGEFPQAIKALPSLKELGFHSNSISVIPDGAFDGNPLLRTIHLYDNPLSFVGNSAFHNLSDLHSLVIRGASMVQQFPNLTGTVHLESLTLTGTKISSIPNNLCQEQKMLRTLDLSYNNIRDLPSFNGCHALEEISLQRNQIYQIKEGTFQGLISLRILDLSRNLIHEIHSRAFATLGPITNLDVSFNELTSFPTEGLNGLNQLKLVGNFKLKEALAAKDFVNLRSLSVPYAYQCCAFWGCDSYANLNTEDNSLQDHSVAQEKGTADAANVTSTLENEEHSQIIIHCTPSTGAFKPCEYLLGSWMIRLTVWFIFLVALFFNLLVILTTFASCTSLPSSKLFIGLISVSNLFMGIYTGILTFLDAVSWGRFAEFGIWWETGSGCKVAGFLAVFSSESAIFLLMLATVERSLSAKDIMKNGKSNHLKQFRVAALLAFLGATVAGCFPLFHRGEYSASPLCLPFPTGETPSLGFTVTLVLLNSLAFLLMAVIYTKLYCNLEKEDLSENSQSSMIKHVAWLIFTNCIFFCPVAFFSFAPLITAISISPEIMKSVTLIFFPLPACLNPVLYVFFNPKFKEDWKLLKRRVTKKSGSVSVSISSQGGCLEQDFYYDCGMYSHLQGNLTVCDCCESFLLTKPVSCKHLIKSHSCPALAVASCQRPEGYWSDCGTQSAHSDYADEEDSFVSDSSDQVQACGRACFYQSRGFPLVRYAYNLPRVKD
Chain of murine LGR5 transgene with N-terminal HA tag, V2 receptor tail and eGFP (Q9Z1P4 22-907): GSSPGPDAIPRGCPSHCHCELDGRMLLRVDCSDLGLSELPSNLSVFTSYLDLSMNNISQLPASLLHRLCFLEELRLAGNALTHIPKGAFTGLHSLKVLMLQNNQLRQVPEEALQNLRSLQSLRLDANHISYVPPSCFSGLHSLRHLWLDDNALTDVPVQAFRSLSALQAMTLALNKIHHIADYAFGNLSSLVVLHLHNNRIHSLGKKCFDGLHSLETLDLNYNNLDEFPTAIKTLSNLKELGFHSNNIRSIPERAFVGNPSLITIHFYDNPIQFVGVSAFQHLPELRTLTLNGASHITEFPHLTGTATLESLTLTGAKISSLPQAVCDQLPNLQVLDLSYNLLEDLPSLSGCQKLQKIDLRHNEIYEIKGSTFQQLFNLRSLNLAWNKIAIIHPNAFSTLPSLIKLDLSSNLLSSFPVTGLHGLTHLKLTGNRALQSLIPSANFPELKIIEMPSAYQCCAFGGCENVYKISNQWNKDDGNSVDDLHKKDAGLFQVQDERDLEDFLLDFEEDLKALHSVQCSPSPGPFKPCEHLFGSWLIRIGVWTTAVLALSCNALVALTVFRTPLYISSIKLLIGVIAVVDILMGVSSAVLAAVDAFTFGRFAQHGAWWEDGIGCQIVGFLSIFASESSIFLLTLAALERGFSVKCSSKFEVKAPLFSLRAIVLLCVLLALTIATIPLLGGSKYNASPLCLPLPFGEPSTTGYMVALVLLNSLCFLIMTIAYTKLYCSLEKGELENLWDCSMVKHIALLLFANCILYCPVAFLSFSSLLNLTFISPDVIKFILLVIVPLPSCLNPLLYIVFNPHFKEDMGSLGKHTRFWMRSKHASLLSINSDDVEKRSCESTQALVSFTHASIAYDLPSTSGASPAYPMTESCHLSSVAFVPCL

B1: α-LGR5-ADC (murine clone 2 conjugated to MMAE, sulphatase cleavable linker) (antibody, V domains shown)
VH: QVQLQQPGAELVKPGASVKLSCKASGYTFTNYWMQWVKQRPGQGLEWIGEIDPSDSYTNYNQKFKGKATLTVDTSSSTAYMQLSSLTSEDSAVYYCARSLSGYVDYWGQGTTLTVSS
VL: DIQMTQTTSSLSASLGDRVTISCRASQDISNRLNWYQQKPDGTVKLLISYRSRLHSGVPSRFSGSGSGTDYSLTISNLEQEDIATYFCQQGNSLPPTFGGGTKLEVR
[1]
  killing of NALM6 cells after three days of treatment (CellTiter-Glo), EC50: 4 nM
  killing of REH cells after three days of treatment (CellTiter-Glo), EC50: 10 nM
[2]
  killing of LoVo cells after three days of treatment (CellTiter-Glo), EC50: 9 nM
[3]
  binding result: binds

B2: α-LGR5 hybridoma clone 1 (antibody, V domains shown)
VH: QVQLQQPGAELVKPGASVKLSCKASGYTFTSYWMQWVKQRPGQGLEWIGEIDPSDYYTNYNQKFKGKATLTVDTSSSTAYMQLSSLTSEDSAVYYCARSLSGYVDYWGQGTTLTVSS
VL: DIQMTQSTSSLSASLGDRVTINCRASQDIRNRLNWYQQKPDGTVKLLISYRSRLQSGVPSRFSGSGSGTEYSLTISNLEQEDIATYFCQQGNTLPPTFGGGTKLEVR
[4]
  binding result: binds

B3: α-LGR5 hybridoma clone 2 (antibody, V domains shown)
VH: QVQLQQPGAELVKPGASVKLSCKASGYTFTNYWMQWVKQRPGQGLEWIGEIDPSDSYTNYNQKFKGKATLTVDTSSSTAYMQLSSLTSEDSAVYYCARSLSGYVDYWGQGTTLTVSS
VL: DIQMTQTTSSLSASLGDRVTISCRASQDISNRLNWYQQKPDGTVKLLISYRSRLHSGVPSRFSGSGSGTDYSLTISNLEQEDIATYFCQQGNSLPPTFGGGTKLEVR
[5]
  binding result: binds
[4]
  binding result: binds

B4: α-LGR5 hybridoma clone 3 (antibody, V domains shown)
VH: QVQLQQPGAELVKPGASVKLSCKASGYTFTSYWMQWVKQRPGQGLEWIGEIDPSDSYSNYNQKFKGKATLTVDTSSSTAYMQLSSLTSEDSAVYYCARSLSGYVDYWGQGTTLTVSS
VL: DIQMTQTTSSLSASLGDRVTISCRASQDISNRLNWYQQKPDGTVKLLISYRSRLQSGVPSRFSGSGSGTDYSLTISNLEEEDIATYFCQQGNTLPPTFGGGTKLEVR
[4]
  binding result: binds

B5: α-LGR5 hybridoma clone 4 (antibody, V domains shown)
VH: QVQLQQPGAELVKPGASVKLSCKASGYTFTDYWMQWVKQRPGQGLEWIGEIDPSDSYTNYNQKFQGKATLTVDTSSSTAYIQLSSLTSDDSAVYYCARSLSGSVDYWGQGTTLTVSS
VL: DIQMTQTTSSLSASLGDRVTISCRASQDISNRLNWYQQKPDGTVKLLISYRSRLQSGVPSRFSGSGSGTDYSLTITNLEQEDIATYFCQQGNTLPPTFGGGTKLEVR
[4]
  binding result: binds

B6: murine α-LGR5 coupled to Dylight650 fluorophore (antibody, V domains shown)
VH: QVQLQQPGAELVKPGASVKLSCKASGYTFTNYWMQWVKQRPGQGLEWIGEIDPSDSYTNYNQKFKGKATLTVDTSSSTAYMQLSSLTSEDSAVYYCARSLSGYVDYWGQGTTLTVSS
VL: DIQMTQTTSSLSASLGDRVTISCRASQDISNRLNWYQQKPDGTVKLLISYRSRLHSGVPSRFSGSGSGTDYSLTISNLEQEDIATYFCQQGNSLPPTFGGGTKLEVR
[6]
  binding result: no binding
[7]
  binding result: no binding
[8]
  binding result: binds
[9]
  binding result: binds
